These are literature values, as cited in publication PMC6934062.

pKd: −log10 of the molar value.

The data set deals with TDP-43 NTD (Homo sapiens) (UniProt Q13148).

TDP-43 NTD (from UniProt Q13148): the pKd was 4.15.
